Experimental data published in patent US8221773B2, “Hydrogels and uses thereof” (University of Delaware, priority 2004, dated 2012).
Where no end group is shown, it is not given here. [ ]: non-standard residue; d: D form.

Key:
[1] = Hydrogelation by folding and self-assembly; format: physicochemical; conditions: for reversibility of thermally induced hydrogelation: pH 9, heating/cooling cycles
Experimental: The ability of MAX1 to undergo hydrogelation is dependent upon its unimolecular folded state. Under basic aqueous solution conditions (pH 9.0, 125 mM Borate, 10 mM NaCl), where some of the lysine side chains of MAX1 are neutral, this peptide intramolecularly folds into an amphiphilic β-hairpin (folding can also be triggered at pH 7 under physiological conditions). One face of the hairpin is lined with hydrophobic valine residues while the other face is lined with hydrophilic lysine residues, FIGS. 2 and 3A. After intramolecular folding, subsequent self-assembly of hairpins is facilitated (a) laterally via H-bond formation and attractive hydrophobic interactions between distinct hairpins as well as (b) facially by hydrophobic association of the valine-rich faces of the folded peptide resulting in hydrogelation, FIG. 3B. Since the charged state of the lysine residues are controlled by pH, the unimolecular folding is reversible. Lowering the pH below the intrinsic pKa of the lysine side chains results in intra-strand charge repulsion from neighboring lysines and subsequent unfolding of individual hairpins, ultimately dissolving the self-assembled hydrogel structure. This reversible behavior is unique when compared to β-sheet-rich hydrogels prepared from classical fibril-based designs. In these systems, the self-assembly process is irreversible.
There are reports of large polymers that are thermally responsive. The present invention provides the first system that employs temperature triggered folding to induce self-assembly. […] Heating the solution to 80° C. results in a spectra consistent with β-sheet structure. […] The temperatures used in both CD and rheology bracket the temperature (Tgel=60° C., FIG. 9) at which folding and consequent self-assembly is triggered. […] For example, free flowing peptide solutions could be prepared at room temperature and administered in vivo where the temperature of the body could induce gelation. Some Poly-N-isopropylacrylamide polymers have been engineered have been engineered to undergo such transitions ultimately affording extracellular-like scaffolds for tissue regeneration. The above studies support the idea that the formation of hydrophobic interactions are important. MAX1-3 all contain valines and threonines at hydrogen bonded positions. At these positions, their side chains prefer to adopt a trans rotamer. As a result, hydrophobic residues that oppose each other across the hairpin point their side chains in opposite directions thus making the formation of intramolecular hydrophobic interactions across the strands difficult, FIG. 11A. However, these side chains are nicely positioned to interact laterally with the hydrophobic side chains of neighboring hairpins in the self-assembled state, FIG. 11B. Forming these lateral hydrophobic interactions should favor self-assembly. […] In MAX4, opposing valine side chains are expected to point towards each other, FIG. 11B. Thus, the valine side chains of MAX4 are less likely than those in MAX1 to form lateral intermolecular hydrophobic interactions. If the formation of lateral intermolecular hydrophobic interactions is of more importance for self-assembly than intramolecular hydrophobic contacts, then the rate of self-assembly should be faster for MAX1 than for MAX4. This difference in rate should be evident in the rate of storage moduli (rigidity) increase. […] (Tgel=20° C. for both peptides). […]

[2] = Temperature dependent CD: temperature at which folding and self-assembly is triggered (Tgel); format: physicochemical; conditions: for temperature at which folding and consequent self-assembly is triggered (Tgel): 150 μM peptide, 125 mM Borate, 10 mM NaCl, pH 9, CD ellipticity at 218 nm
Description: At low temperature MAX1 is unfolded (and unassembled). At high temperature MAX1 folds into beta-sheet (and consequently self-assembles into a hydrogel). […] The relative hydrophobicity is MAX1>MAX2>MAX3 due to the isostructural but less hydrophobic substitutions of threonine for valine at the underlined positions. The most hydrophobic folds at the lowest temperature while the least hydrophobic folds at the highest temperature. This is a direct manifestations of the molecular parameter manipulations described in FIG. 2. Also shown are the calculated free energy of transfer of each corresponding unfolded peptide having an overall +8 charge state from octanol into water at 25° C. MAX1, the most hydrophobic has the highest free energy of transfer equal to 7.60 kcal/mol. MAX2 has a calculated transfer free energy of 6.88 kcal/mol, while the least hydrophobic MAX3 has the lowest energy of transfer of 6.45 kcal/mol.
This allows the characteristics of the hydrogels of the invention to be varied by adjusting these parameters. […] It is well known that water is better able to solvate hydrophobic groups at low temperatures. This phenomenon has been used to describe the cold denaturation of proteins where some proteins unfold at low temperatures, exposing their hydrophobic interiors to aqueous solvent. A 150 μM aqueous solution of MAX1 unfolds when cooled below room temperature. The CD spectrum at 5° C. is consistent with random coil conformation, FIG. 9A. However, warming the solution to 40° C. results in a spectra consistent with β-sheet structure. […] In fact, previous studies involving the pH induced folding and self-assembly of MAX1 were performed at 20° C. At this temperature, folding and self-assembly are slow enough to be conveniently monitored. At higher temperatures, folding and self: assembly leading to hydrogelation is fast (instantaneous to seconds depending on concentration). If the formation of hydrophobic interactions affects the folding and self-assembly process, then altering the hydrophobic content of MAX1 should affect the temperature at which folding is triggered. […] MAX2 is identical to MAX1 except that one valine residue has been replaced with the isostructural, but less hydrophobic residue, threonine. In MAX3, two valines are replaced with threonine residues. The resulting peptides vary in their hydrophobicity as evident by comparing calculated free energies of transfer from octanol into water, FIG. 9. […] Thus, the formation of hydrophobic contacts influences folding and self-assembly. […] Thus, the characteristics of the hydrogels of the invention can be varied by adjusting the amino acid residues of the peptides used to form the hydrogels to increase or decrease the hydrophobicity of the amino acid residues used.
There are reports of large polymers that are thermally responsive. The present invention provides the first system that employs temperature triggered folding to induce self-assembly. […] Heating the solution to 80° C. results in a spectra consistent with β-sheet structure. […] The temperatures used in both CD and rheology bracket the temperature (Tgel=60° C., FIG. 9) at which folding and consequent self-assembly is triggered. […] For example, free flowing peptide solutions could be prepared at room temperature and administered in vivo where the temperature of the body could induce gelation. […]

[3] = cited from earlier work
[4] = CD spectroscopy of peptide folding (random coil vs β-sheet); format: physicochemical; conditions: 150 μM solution, pH 9.0, 125 mM Borate, 10 mM NaCl
Experimental: Time-dependent circular dichroism (CD) studies support a hydrogelation mechanism consistent with intramolecular hairpin formation followed by self-assembly. […] At temperatures >25° C. the folding and self-assembly of MAX1 occurs on the order of seconds. […] This behavior is consistent across all spectro- and microscopic methods used to interrogate MAX1. For example, at micromolar concentrations used for the CD studies shown in FIGS. 4A and 4B, self-assembly takes hours at 20° C. At millimolar concentrations, such as those used in the rheological studies described below, self-assembly leading to hydrogel takes minutes at 20° C.
The reversibility of the folding and self-assembly process was investigated by measuring θ216 as a function of pH and time as shown in FIG. 4C. CD of a stirred solution of MAX1 at pH 5.5 indicates random coil conformation. Adjusting the pH to 9.0 by the addition of NaOH results in β-sheet formation as expected. However, subsequent adjustment of the pH to 6.0 results in complete loss of sheet signal and full recovery of random coil signal. […] Again, this reversible behavior is not observed in hydrogels formed from amyloid/prion-like fibrils.
In some embodiments of the invention, various functionalities (e.g., cell adhesion epitopes, receptor agonists, receptor antagonists, ligands, small molecules, etc) may be incorporated into the hairpin hydrogel scaffold. One way to accomplish this would be to functionalize one or more amino acid side chains of the peptide. […] In some embodiments, the moieties to be incorporated at a particular side chain may be much larger (e.g. RGD-based motifs) and may contain charged residues. MAX5 (VKVKVKVKV^DPPTKVKEKVKV-NH2) was prepared to investigate the possibility of incorporating a charged residue on the hydrophobic face of MAX1. The sequence contains a glutamic acid residue at position 16 which is negatively charged at basic pH where MAX1 normally folds and assembles. […] However, alterations to the hydrophilic face of MAX1 are well tolerated. Sequences in which one or two lysine residues are replaced with other residues such as cysteine, serine, and glutamic acid are capable of folding and self-assembly into rigid hydrogels (data not shown).
The peptides described above contain identical turn sequences, namely (-V^DPPT-). This sequence has a strong propensity to form a type II′ turn and therefore helps to drive intramolecular folding. Since intramolecular folding must occur prior to self-assembly, alterations to this turn sequence that inhibit turn structure formation can be used to modulate intramolecular folding and self-assembly leading to hydrogelation. MAX9 was prepared to probe the importance of the turn region (VKVKVKVKV^LPPTKVKVKVKV-NH2). […]

Compound: VKVKVKVK V^DPPT KVKTKVKV-NH2 (not fully specified (C-terminus)) [MAX2]
- reversibility of thermally induced hydrogelation [1]: not reversible
- temperature above which peptide folds/self-assembles ([2]; pH 9 (10 mM NaCl)): greater than 45 °C
- temperature below which peptide is unfolded ([2]; pH 9 (10 mM NaCl)): below 40 °C

Compound: NC(=O)CN1CCN(CC(N)=O)CCN(CC(N)=O)CCN(CC(N)=O)CC1 [DOTAM]
- Kd ([3]; read-out: Kd for calcium): 29 nM

Compound: VKVKVKTK V^DPPT KVKTKVKV-NH2 (not fully specified (C-terminus)) [MAX3]
- reversibility of thermally induced hydrogelation [1]: thermally reversible
- temperature at which folding and consequent self-assembly is triggered (Tgel) [2]: 60 °C

Compound: VKVKVKVK V^DPPT KVKEKVKV-NH2 [MAX5]
- conformation by CD under folding conditions [4]: random coil

Compound: VKVKVKVK VPPT KVKVKVKV-NH2 (VKVKVKVKVPPTKVKVKVKV-NH2) [MAX9]
- hydrogelation under folding conditions ([1]; 2 wt % solutions): failed to undergo hydrogelation
- conformation by CD under folding conditions [4]: only random coil

Compound: -DRKADGYIDFEE-
- Kd for Ca(II) ([3]; linear peptide): low mM

Compound: KVKVKVKV K^DPPS VKVKVKVK-NH2 (chain 1 KVKVKVKVK[dP]PS; not fully specified) [MAX4]
- temperature at which folding and consequent self-assembly is triggered (Tgel) [2]: 20 °C

Compound: VKVKVKVK V^DPPT KVKCKVKV-NH2 (not fully specified (C-terminus)) [MAX6]
- ability to fold and self-assemble [1]: folds and self-assembles
